Our source for the Kd values is article PMC5737868.

For one data set, the target named is FUS-NLUC-FLAG (UniProt P35637 1-526, P525L). The data set is described as follows: NanoBRET. Background: In BRET a luciferase serves as donor, and the signal depends on an acceptor being close.
Data set [1] has as its target FUS-P525L-NLUC-HA / NLUC-FUS-P525L-HA (full-length) (UniProt P35637 1-526, P525L). The data set is described as follows: NanoBRET.

In the data set with FUS-NLUC-FLAG, CUGCUAGCCUCUGGAUUUGA (ssRNA) [PO-RNA JB-39] displayed a Kd of 143 ± 38.2 nM.
Take CTGCTAGCCTCTGGATTTGA (XNA, full phosphorothioate, 2'-fluoro-modified gapmer (pattern not in the material)) [2'-F PS-ASO ION-766637]: in data set [1], the Kd came to 2.2 ± 0.2 nM.

As a reminder, the Kd is the free concentration of one partner at which half of the binding sites on the other are occupied at equilibrium, for simple one-to-one binding.
